Reference: PMC7612376, “Structural basis of meiotic chromosome synaptic elongation through hierarchical fibrous assembly of SYCE2-TEX12” (Nature structural & molecular biology, 2021)

T1: SYCE2 core (amino-acids 57-165) (human, UniProt Q6PIF2 57-165)
T1 construct: SYCE2, human, core, residues 57-165; also called SYCE2 structural core; source: E. coli BL21 (DE3), co-expressed with TEX12, purified (Ni-NTA, amylose, ion exchange, SEC); not shown: MBP, N-terminal, cleaved
T1 sequence (looked up): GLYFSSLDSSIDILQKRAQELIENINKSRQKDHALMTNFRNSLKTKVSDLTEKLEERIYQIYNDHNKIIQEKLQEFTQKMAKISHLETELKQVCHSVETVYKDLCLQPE

T2: SYCE2 core ΔS2C (amino-acids 57-154) (human, UniProt Q6PIF2 57-154)
T2 construct: SYCE2, human, ΔS2C, residues 57-154; source: E. coli BL21 (DE3), co-expressed with TEX12, purified (Ni-NTA, amylose, ion exchange, SEC); not shown: MBP, N-terminal, cleaved
T2 sequence (looked up): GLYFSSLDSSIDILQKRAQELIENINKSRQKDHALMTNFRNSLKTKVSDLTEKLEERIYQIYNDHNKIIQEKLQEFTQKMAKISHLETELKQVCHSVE

T3: SYCE2 core H89E Y115E (human, UniProt Q6PIF2 57-165, H89E | Y115E)
T3 construct: SYCE2, human, core, residues 57-165, with H89E and Y115E; source: E. coli BL21 (DE3), co-expressed with TEX12, purified (Ni-NTA, amylose, ion exchange, SEC); not shown: MBP, N-terminal, cleaved
T3 sequence (looked up): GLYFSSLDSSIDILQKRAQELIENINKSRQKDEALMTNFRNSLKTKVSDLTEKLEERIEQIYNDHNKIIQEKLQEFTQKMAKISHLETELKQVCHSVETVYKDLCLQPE

T4: SYCE2 core V149E V153E V156E L160E (human, UniProt Q6PIF2 57-165, V149E | V153E | V156E | L160E)
T4 construct: SYCE2, human, core, residues 57-165, with V149E, V153E, V156E and L160E; The four mutations are read as combined in one construct (one mass is printed for it); also called V149E, V153E, V156E and L160E mutant; S2C hydrophobic core mutant; source: E. coli BL21 (DE3), co-expressed with TEX12, purified (Ni-NTA, amylose, ion exchange, SEC); not shown: MBP, N-terminal, cleaved
T4 sequence (looked up): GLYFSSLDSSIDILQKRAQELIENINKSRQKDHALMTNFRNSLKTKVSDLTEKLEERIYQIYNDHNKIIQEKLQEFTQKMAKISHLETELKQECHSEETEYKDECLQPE

T5: MBP-SYCE2 core (57-165) fusion protein (human, UniProt Q6PIF2 57-165)
T5 construct: SYCE2, human, core, residues 57-165; also called SYCE2-TEX12 core MBP-fusion, SYCE2 chain; source: E. coli BL21 (DE3), co-expressed with TEX12, purified; not shown: MBP, N-terminal, kept
T5 sequence (looked up): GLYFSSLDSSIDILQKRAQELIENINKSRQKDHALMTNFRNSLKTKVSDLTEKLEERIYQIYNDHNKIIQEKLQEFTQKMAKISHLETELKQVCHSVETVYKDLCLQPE

T6: MBP-SYCE2 core ΔS2C (57-154) fusion protein (human, UniProt Q6PIF2 57-154)
T6 construct: SYCE2, human, ΔS2C, residues 57-154; also called ΔS2C MBP-fusion, SYCE2 chain; source: E. coli BL21 (DE3), co-expressed with TEX12, purified; not shown: MBP, N-terminal, kept
T6 sequence (looked up): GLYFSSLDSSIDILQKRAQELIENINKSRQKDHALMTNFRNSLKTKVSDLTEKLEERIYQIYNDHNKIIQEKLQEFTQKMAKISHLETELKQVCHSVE


Key:
Assay in all cases: SEC-MALS; co-purified complexes at >1 mg/ml on Superdex 200 Increase 10/300 GL in 20 mM Tris pH 8.0, 150 mM KCl, 2 mM DTT; in Fig. 1 core at 200 uM and full-length at 100 uM (4 mg/ml)
Conditions in all cases: both partners purified
[1] = biological target: T1, SYCE2 core (amino-acids 57-165)
[2] = biological target: T2, SYCE2 core ΔS2C (amino-acids 57-154)
SYCE2 core H89E Y115E = biological target: T3, SYCE2 core H89E Y115E
[3] = biological target: T4, SYCE2 core V149E V153E V156E L160E
[4] = biological target: T5, MBP-SYCE2 core (57-165) fusion protein
[5] = biological target: T6, MBP-SYCE2 core ΔS2C (57-154) fusion …

| Binder | stoichiometry N [1] | stoichiometry N [2] | stoichiometry N (SYCE2 core H89E Y115E) | stoichiometry N [3] | stoichiometry N [4] | stoichiometry N [5] |
| --- | --- | --- | --- | --- | --- | --- |
| TEX12 core (amino-acids 49-123) (domain or fragment, human, UniProt Q9BXU0 49-123, looked up, TEX12, human, core, residues 49-123; also called TEX12 structural core; source: E. coli BL21 (DE3), co-expressed with SYCE2, purified (Ni-NTA, amylose, ion exchange, SEC); not shown: His6, N-terminal, cleaved) KDEALEKDLNDVSKEINLMLSTYAKLLSERAAVDASYIDEIDELFKEANAIENFLIQKREFLRQRFTVIANTLHR | 1 TEX12 per SYCE2 (4:4) | 1 TEX12 per SYCE2 (2:2) | 1 TEX12 per SYCE2 (2:2) | 1 TEX12 per SYCE2 (2:2) | – | – |
| TEX12 core (49-123) of the SYCE2-TEX12 core MBP-fusion proteins (domain or fragment, human, UniProt Q9BXU0 49-123, looked up, TEX12, human, core, residues 49-123; also called TEX12 core in the MBP-fusion complexes; source: E. coli BL21 (DE3), co-expressed with MBP-SYCE2, purified) KDEALEKDLNDVSKEINLMLSTYAKLLSERAAVDASYIDEIDELFKEANAIENFLIQKREFLRQRFTVIANTLHR | – | – | – | – | 1 TEX12 per SYCE2 (4:4) | 1 TEX12 per SYCE2 (2:2) |
